Measured values: paper PMC4221783

Assays:
[1] = target: Vangl2 lacking the PDZ-binding motif at the C-terminal end; assay: co-IP
[2] = target: Vangl2 lacking the Prickle-binding domain (UniProt Q91ZD4); assay: co-IP
Sequence of Vangl2 lacking the Prickle-binding domain (Q91ZD4 whole entry, the tested form may be a part): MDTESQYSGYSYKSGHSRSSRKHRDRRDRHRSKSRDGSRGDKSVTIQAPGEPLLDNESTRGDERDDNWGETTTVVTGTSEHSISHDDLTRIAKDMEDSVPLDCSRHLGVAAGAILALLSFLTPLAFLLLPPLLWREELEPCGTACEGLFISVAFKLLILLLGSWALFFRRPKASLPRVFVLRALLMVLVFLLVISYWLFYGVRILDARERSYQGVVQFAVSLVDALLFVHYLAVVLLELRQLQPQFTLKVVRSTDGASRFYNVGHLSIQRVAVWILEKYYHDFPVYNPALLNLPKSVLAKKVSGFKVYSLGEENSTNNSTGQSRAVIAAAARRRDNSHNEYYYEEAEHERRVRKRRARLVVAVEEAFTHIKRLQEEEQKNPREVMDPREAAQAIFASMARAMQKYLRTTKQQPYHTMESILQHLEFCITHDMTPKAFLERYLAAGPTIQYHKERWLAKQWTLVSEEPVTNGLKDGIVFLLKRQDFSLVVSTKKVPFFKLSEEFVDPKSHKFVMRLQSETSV

Sequence of Vangl2 lacking the PDZ-binding motif at the C-terminal end (P84889 whole entry, the tested form may be a part): as the sequence (Q91ZD4 whole entry, the tested form may be a part) above

For “E-cadherin (from UniProt P09803 157-884) (natural protein)”, which association in co-IP, percent of WT [1] is on record?
The association in co-IP, percent of WT was 87.1%.

And the association in co-IP, percent of WT [2]?
Its association in co-IP, percent of WT is 28.4%.
